Molecular target: T1, CD30 on Hodgkin-derived cell lines (L540, L428) (human, UniProt P28908 19-595)
T1 sequence (looked up): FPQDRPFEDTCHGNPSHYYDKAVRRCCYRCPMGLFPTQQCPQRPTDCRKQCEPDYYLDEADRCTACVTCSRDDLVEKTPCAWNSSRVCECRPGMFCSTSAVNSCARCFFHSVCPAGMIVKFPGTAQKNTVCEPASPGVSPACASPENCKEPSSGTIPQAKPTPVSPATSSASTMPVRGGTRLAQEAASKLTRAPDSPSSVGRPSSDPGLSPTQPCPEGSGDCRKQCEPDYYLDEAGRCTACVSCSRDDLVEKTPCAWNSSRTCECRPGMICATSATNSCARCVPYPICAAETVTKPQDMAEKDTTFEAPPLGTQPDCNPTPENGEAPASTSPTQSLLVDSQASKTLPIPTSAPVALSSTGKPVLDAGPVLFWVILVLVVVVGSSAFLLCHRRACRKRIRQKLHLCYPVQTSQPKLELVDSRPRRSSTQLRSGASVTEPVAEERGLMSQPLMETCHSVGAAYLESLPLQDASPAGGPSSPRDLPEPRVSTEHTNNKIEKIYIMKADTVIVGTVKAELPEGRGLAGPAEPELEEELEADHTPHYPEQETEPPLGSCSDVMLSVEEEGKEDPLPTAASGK
Test: cell-based or functional assay

B1: fully human anti-CD30 monoclonal antibody 5F11 (antibody, V domains shown)
VH: QVQLQQWGAGLLKPSETLSLTCAVYGGSFSAYYWSWIRQPPGKGLEWIGDINHGGGTNYNPSLKSRVTISVDTSKNQFSLKLNSVTAADTAVYYCASLTAYWGQGSLVTVSS
VL: DIQMTQSPTSLSASVGDRVTITCRASQGISSWLTWYQQKPEKAPKSLIYAASSLQSGVPSRFSGSGSGTDFTLTISSLQPEDFATYYCQQYDSYPITFGQGTRLEIK
**Q.** With B1 as the binder, how does the “NF-κB-responsive luciferase reporter gene in transfected L428 cells” value read?
**A.** Its value is roughly 2 fold.

Reference: patent publication US20060177442A1 (Bristol-Myers Squibb, published 2006)
